Test system: F1*sub RNA substrate (template-directed ligation)
Test: fraction ligated after 30 min (ligated reads / total reads); higher = more ligase activity; sequences stand for … in GAGACCGCAACTGAAAAGTTGT…AGTTCTGCACGTAGAAGCAAAAGGC
Details: 42 °C
In short: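 Oligo-pool templates underwent PCR amplification, T7 transcription and gel purification to yield ribozyme variants. Gel-separated ligated and unligated bands were converted to complementary DNA with barcoded primers and sequenced on a MiSeq, keeping core bases of quality ≥20. The ratio of ligated reads to total reads gave the fraction ligated for every variant.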

Sequence | fraction ligated
TATCCTTGTCGAAGACACTTTGGATGGGTTGA [2d95] | 0.806
TATCATTGTCGTAAGACACTTTGATGGGTTG [3d1281] | 0.765
ATCCTTGTCGTAAGACACTTTGGATGGTTGA [3d83] | 0.138
TTCACTTGTCGTAAGACATTGGATGGGTTGA [3d477] | 0.653
ATCACTTGTGTAAGACACTTTGATGGGTTGA [3d165] | 0.453
TTCACTTGCGTAAGACACTTTGGAGGGTTGA [3d383] | 0.0421
TATATTGTCGTAAGACACTTTGGATGGGTTG [3d776] | 0.214
TATCCTTGTGTAAGACCTTTGGATGGGTTGA [3d1006] | 0.801
TATCACTGCGTAAGACACTTTGGATGGGTTA [3d1341] | 0.803
TATACTTGCGTAAGACACTTTGGAGGGTTGA [3d824] | 0.0191
ATCACTTGCGTAAGACACTTTGGAGGGTTGA [3d152] | 0.061
TATCACTTGTCGTAAGACATTTGGAGGGTTG [3d2226] | 0.00325
TATCATTGTGTAAGACACTTTGATGGGTTGA [3d1181] | 0.308
TATCACTTGTCGTGACACTTTGGATGGGTTG [3d1992] | 0.826
ATCACTGTCGTAAGACACTTTGGTGGGTTGA [3d119] | 0.108
TATCATGTCGTAAGACACTTTGGTGGGTTGA [3d1135] | 0.523
TATCACTTGCTAGACACTTTGGATGGGTTGA [3d1600] | 0.805
TACACTTTCGTAAGACACTTTGATGGGTTGA [3d595] | 0.0271
TATCACTGTCTAAGACACTTTGGATGGGTTGA [2d132] | 0.818
TTCACTTGTCTAAGACATTTGGATGGGTTGA [3d408] | 0.753
TATCCTTGCGTAAGACACTTTGGTGGGTTGA [3d995] | 0.131
TATCACTTGTCGTAAGCACTTTGGAGGTTGA [3d2145] | 0.143
TATACTTGTCGAAGACACTTTGGATGGGTTG [3d869] | 0.61

Sequence | fraction ligated
TATCACTTGTCGTAAACATTTGGATGGGTTG [3d2080] | 0.826
TCACTTGTCGTAAGACACTTTGGATGGTTGA [3d21] | 0.709
TATCACTTGTGTAAGACACTTTGATGGGTTG [3d1798] | 0.544
TTCACTTGTGTAAGACACTTTGGATGGGTTG [3d401] | 0.726
ATCACTTGTCGTAAGCACTTGGATGGGTTGA [3d224] | 0.716
TCACTTGTCGTAAACACTTTGGATGGGTTGA [3d12] | 0.444
TTCACTTGTCTAAGACCTTTGGATGGGTTGA [3d407] | 0.578
TTCCTTGTCGTAAGCACTTTGGATGGGTTGA [3d306] | 0.772
TATCACTTGCGAAGACACTTGGATGGGTTGA [3d1619] | 0.785
TTCACTTGTCGTAAACCTTTGGATGGGTTGA [3d443] | 0.514
TATCATTTCGTAAGACACTTTGGATGGGTTA [3d1154] | 0.313
TATCCTTGTCGAAGACACTTTGGATGGTTGA [3d1039] | 0.0395
TATACTTGTCGTAAGCACTTGGATGGGTTGA [3d896] | 0.645
TATCACTTGTCGAAGACCTTTGGATGGGTTA [3d1948] | 0.773
TATCACTTGTCGTAAGACACTTTATGGGTTA [3d2258] | 0.0282
TATCCTGTCGTAAGACACTTTGGATGGGTTG [3d967] | 0.76
TATCACTTGTCGTAAGACACTTGGAGGTTGA [3d2248] | 0.00668
TATCTTGTCGTAAGACACTTTGGATGGTTGA [3d755] | 0.155
TATACTTGTCGTAAGACACTTTGGTGGGTTA [3d940] | 0.00259
TATCCTTGTCGTAAGACACTTGGATGGGTTG [3d1103] | 0.742
TACACTTGCGTAAGACACTTTGGATGGGTTG [3d616] | 0.118
TTCACTTTGTAAGACACTTTGGATGGGTTGA [3d355] | 0.747
TTCATTGTCGAAGACACTTTGGATGGGTTGA [3d322] | 0.197

Sequence | fraction ligated
TTCACTTGTCGTAAGAACTTGGATGGGTTGA [3d463] | 0.226
TATACTTGTCGAAGACACTTTGGATGGTTGA [3d867] | 0.0528
TATCACTTTCGTAAACACTTTGGATGGGTTA [3d1527] | 0.575
TATCACTTCGTAAGACACTTTGGTGGGTTGA [3d1322] | 0.085
TATCCTTGTCGTAAACACTTTGGATGGGTTG [3d1064] | 0.805
TATCACTTGTCGTAAGCCTTTGGATGGGTTG [3d2120] | 0.782
TTCACTTGTCTAAGACACTTTGGTGGGTTGA [3d411] | 0.035
TACACTTGTCGTAAGCCTTTGGATGGGTTGA [3d683] | 0.0763
ATCACTTGCGTAAGACACTTTGGATGGGTTG [3d155] | 0.805
TATCACTTGTCGTAAGAACTTTGGAGGGTTG [3d2178] | 0.0318
ATCATTGTCGTAAGACACTTTGGATGGGTTGA [2d5] | 0.759
TATCACTTGTCGTAAGCACTTGGATGGGTTA [3d2133] | 0.565
TATCCTTGCTAAGACACTTTGGATGGGTTGA [3d985] | 0.764
TATCATGTCGAAGACACTTTGGATGGGTTGA [3d1126] | 0.792
ATCACTTGTCGTAAGAATTTGGATGGGTTGA [3d231] | 0.757
TATCACTTTCGTAAGACACTTGGTGGGTTGA [3d1563] | 0.171
TTCACTTGTCTAAGAACTTTGGATGGGTTGA [3d406] | 0.349
TACACTTGTCGTAGACACTTGGATGGGTTGA [3d665] | 0.101
TATCACTTGTCGTAACACTTTGGATGGGTTG [3d2002] | 0.806
TTCACTTGTCGTAAGACACTTTGGATGGGTTGA [1d2] | 0.789
TATACTTGTCGTAAGACACTTGATGGGTTGA [3d926] | 0.765
TATCACTTGCGTAGACCTTTGGATGGGTTGA [3d1630] | 0.817
TATCACTTGTCGTAAGCATTTGATGGGTTGA [3d2122] | 0.408

Sequence | fraction ligated
TAACTTGTCGTAGACACTTTGGATGGGTTGA [3d515] | 0.177
TATCATTGTGTAAGACATTTGGATGGGTTGA [3d1179] | 0.839
TACACTTGTCGTAAGACACTTTGATGGGTTG [3d726] | 0.0988
TATCACTTGGTAAGACACTTTGGATGGTTGA [3d1596] | 0.134
TATCACTTGTCTAAGAACTTGGATGGGTTGA [3d1857] | 0.771
TATCCTTGTCGTAAGAACTTTGGAGGGTTGA [3d1079] | 0.00912
TATCACTCGTAAGACACTTTGGATGGGTTGA [3d1293] | 0.783
TATCACTTGTGTAAGACCTTTGGAGGGTTGA [3d1775] | 0.137
ATCACTGTCGTAAGAACTTTGGATGGGTTGA [3d114] | 0.848
TATCACTTTCGTAGACACTTTGGTGGGTTGA [3d1514] | 0.0546
TACACTTGTCGTAAGACACTTTGGTGGGTTGA [2d64] | 0.153
TATCACTTGTGTAAGACACTTTGGAGGGTTG [3d1805] | 0.0238
TATCACTTGTCGTAAACACTTTGATGGGTTGA [2d238] | 0.763
TATCACTTGCTAAGACATTTGGATGGGTTGA [3d1605] | 0.849
TATCACTGTCGTAGACACTTTGGATGGTTGA [3d1395] | 0.409
TATCTTGTCGTAAGAACTTTGGATGGGTTGA [3d748] | 0.841
TACATTGTCGTAAGCACTTTGGATGGGTTGA [3d555] | 0.041
TATCACTTGTCGTAAGACACTTTGGAGGGTTA [2d294] | 0.0266
TTCACTTGTCTAAGACACTTTGGAGGGTTGA [3d412] | 0.154
TTACTTGTCGTAAGACACTTTGGATGGGTTGA [2d25] | 0.419
TATACTTGTGTAAGACACTTTGGATGGTTGA [3d840] | 0.109
TATCACTTGCGAAGACACTTTGGTGGGTTGA [3d1621] | 0.0968
TATCACTGTCGTAAGCACTTTGGATGGGTTA [3d1416] | 0.752

Sequence | fraction ligated
ATCACTTGTGTAAGCACTTTGGATGGGTTGA [3d160] | 0.854
ATCACTTTCGTAAGACCTTTGGATGGGTTGA [3d131] | 0.752
TATCACTTGCGTAGACACTTTGGTGGGTTGA [3d1634] | 0.0947
TATCATTGTCGTAAGACACTTTGTGGGTTGA [3d1277] | 0.0371
TACACTGCGTAAGACACTTTGGATGGGTTGA [3d568] | 0.177
TATCACTTGTCGTAAGCACTTTGGTGGGTTG [3d2144] | 0.0518
TATCACTTGTCGAGACACTTTGGATGGGTTG [3d1914] | 0.797
TATCACTTGTCGTAAGCACTTTGGATGGTTGA [2d251] | 0.216
TATCACTGTCGAAGACATTTGGATGGGTTGA [3d1377] | 0.841
TATCATTGTCGTAAGCACTTTGGAGGGTTGA [3d1243] | 0.0203
TATCACTTTCGTAAGACACTTTGGATGGTTGA [2d160] | 0.114
TACATTGTCGTAAGACACTTTGGTGGGTTGA [3d561] | 0.144
ATCACTTGTCGTAAGACACTTTGGATGGTTGA [2d22] | 0.76
TACACTTGTCGTAAACACTTGGATGGGTTGA [3d675] | 0.0236
TTCACTTGTCTAAGCACTTTGGATGGGTTGA [3d405] | 0.67
TTCACTTGCGTAAGACACTTGGATGGGTTGA [3d380] | 0.182
TTCACTTGTCGTAAGCACTTTGATGGGTTGA [3d456] | 0.0811
TACATTGCGTAAGACACTTTGGATGGGTTGA [3d549] | 0.0211
TATCACTTGCGTAAGACCTTGGATGGGTTGA [3d1667] | 0.797
TATCCTTGCGTAAGACATTTGGATGGGTTGA [3d992] | 0.792
